Residue numbers refer to the chain shown, from its start. Numbers in names are those of the source. No end group written: not given here. TMR = tetramethyl rhodamine dye
T1: Rb^P H673P (human, UniProt P06400 380-788, H673P)
T1 construct: also called variant 54
T1 sequence (looked up): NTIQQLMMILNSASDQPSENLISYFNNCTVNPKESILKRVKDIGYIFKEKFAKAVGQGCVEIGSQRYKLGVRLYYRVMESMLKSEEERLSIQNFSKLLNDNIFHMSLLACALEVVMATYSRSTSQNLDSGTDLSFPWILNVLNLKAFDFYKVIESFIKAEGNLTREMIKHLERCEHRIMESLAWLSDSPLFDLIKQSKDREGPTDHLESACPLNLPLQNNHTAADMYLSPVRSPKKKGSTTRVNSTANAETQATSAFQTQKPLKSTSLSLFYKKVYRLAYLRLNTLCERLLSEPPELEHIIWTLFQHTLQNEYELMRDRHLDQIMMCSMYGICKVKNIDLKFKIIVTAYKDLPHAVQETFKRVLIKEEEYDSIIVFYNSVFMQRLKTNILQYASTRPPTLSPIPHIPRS

T2: Rb^P R621P (human, UniProt P06400 380-788, R621P)
T2 construct: also called variant 43
T2 sequence (looked up): T1 sequence (looked up) with R242P, P294H

T3: Rb^P H585Y (human, UniProt P06400 380-788, H585Y)
T3 construct: also called variant 33
T3 sequence (looked up): T1 sequence (looked up) with H206Y, P294H

T4: Rb^P I679F (human, UniProt P06400 380-788, I679F)
T4 construct: also called variant 57
T4 sequence (looked up): T1 sequence (looked up) with P294H, I300F

T5: Rb^P E693A (human, UniProt P06400 380-788, E693A)
T5 construct: also called variant 60
T5 sequence (looked up): T1 sequence (looked up) with P294H, E314A

B1: TMR-E2F1^TD, peptide of the E2F1 transactivation domain (peptide)
peptide: {TMR}-GEGIRDLFDCDFGDLTPLD
notes: also called E2F^TD; source: synthetic peptide, bought: GenScript
B2: TMR-E7^LxCxE, LxCxE peptide of the E7 oncoprotein from HPV (peptide)
peptide: DLYCYEQLN
modifications: also: TMR label, position not given here
notes: source: synthetic peptide, bought: GenScript

Key:
Assay in all cases: fluorescence polarisation; 25 °C; unlabeled Rb^P titrated against 1.5 nM TMR-E2F1^TD or 7.5 nM TMR-E7^LxCxE; 25 mM Tris pH 8.0, 200 mM NaCl, 1 mM DTT, 0.1% Tween-20; 2 min incubation; quadratic fit; apparent Kd for the variants, Kd for WT
Settings in all cases: both partners purified
Rb^P H673P = target: T1, Rb^P H673P
Rb^P R621P = target: T2, Rb^P R621P
Rb^P H585Y = target: T3, Rb^P H585Y
Rb^P I679F = target: T4, Rb^P I679F
Rb^P E693A = target: T5, Rb^P E693A

| Binder | Kd (Rb^P H673P) [nM] | Kd (Rb^P R621P) [nM] | Kd (Rb^P H585Y) [nM] | Kd (Rb^P I679F) [nM] | Kd (Rb^P E693A) [nM] |
| --- | --- | --- | --- | --- | --- |
| B1 | 42 | 40 | 35 | 17 | 42 |
| B2 | 24 | 12 | 6 | 11 | 7 |
